Test results from patent publication US11787839B2, “Targeting α2δ-1-bound glutamate receptors for treating diseases and disorders” (Board of Regents, The University of Texas System, priority 2017, dated 2023).

What was measured:
[1] = target: T1, NMDARs of spinal dorsal horn neurons (Rattus norvegicus, UniProt P35439+Q00959+Q00960); assay: Electrophysiological recordings in rat spinal cord slices (SNL, Cacna2d1 vector); assay type: cell-based; settings: SNL rats; peptides 1 mM for 60 min
T1 construct: from tissue; host or cells: rat lumbar spinal cord slices (lamina II neurons) and synaptosomes made from them
Method: Electrophysiological recordings in spinal cord slices: Anesthesia was induced in rats or mice with isoflurane and removed the lumbar spinal cords via laminectomy. […] The spinal cord slices were placed in a glass bottom chamber and continuously perfused with Krebs solution at 5.0 ml/min at 34° C. maintained by an inline solution heater and a temperature controller.
It becomes impossible to visualize neurons in other laminas in adult (>10-week-old) rodent spinal cords because of heavy laminar myelination. […] The tip of the puff pipette was placed 150 μm away from the recorded neuron.
In some experiments, the attached dorsal root was electrically stimulated with a stimulating electrode (0.5 ms, 0.6 mA and 0.1 Hz) to evoke monosynaptic excitatory postsynaptic currents (EPSCs). The α-amino-3-hydroxy-5-methyl-4-isoxazolepropionic acid receptor (AMPAR)-mediated EPSCs were recorded at a holding potential of −60 mV in the presence of 10 μM bicuculline and 1 μM strychnine, whereas NMDAR-mediated EPSCs were recorded at +40 mV in the presence of 10 μM 6-cyano-7-nitroquinoxaline-2,3-dione, 10 μM bicuculline, and 1 μM strychnine. […] All signals were recorded using an amplifier (MultiClamp700B; Axon Instruments Inc., Union City, Calif.), filtered at 1-2 kHz, digitized at 10 kHz, and stored for off-line analysis. Final spinal cord slice recordings were performed 3-4 weeks after the nerve injury or sham surgery. In all electrophysiological experiments, 3-5 animals were used for each recording protocol, and only 1 neuron was recorded in each spinal cord slice.

[2] = system: rats treated with the Cacna2d1 vector; assay: Withdrawal thresholds in rats overexpressing Cacna2d1 (lentiviral vector); assay type: in vivo, rat; settings: for pain hypersensitivity induced by Cacna2d1 overexpression (tactile and pressure withdrawal thresholds): Cacna2d1 vector rats, AP5, peptide, gabapentin intrathecal, memantine systemic
[3] = target: T2, α2δ-1-Cav2.2 interaction (Rattus norvegicus, UniProt P54290+Q02294); assay: Co-IP of α2δ-1 and Cav2.2 in spinal cord after intrathecal injection; assay type: in vivo; settings: SNL and sham rats, intrathecal 1 μg, 60 min
T2 construct: from tissue; host or cells: rat dorsal spinal cord (L5-L6) membrane extracts after intrathecal injection
Method: Whole-cell IBa was elicited by a depolarizing pulse to 0 mV for 200 ms from a holding potential of −90 mV. […] Data are means±s.e.m. The numbers of cells recorded in each group are indicated in parentheses (cells from 4 separate experiments). […] The dorsal spinal cord at the L5 and L6 level was removed 60 min after intrathecal injection of α2δ-1Tat peptide (1 μg) or control peptide (1 μg). Membrane proteins were immunoprecipitated first with a rabbit anti-α2δ-1 or anti-IgG antibody. Western immunoblotting was performed by using an anti-Cav2.2 antibody. S, sham; L, SNL; C, control peptide; P, α2δ-1Tat peptide. Data are means±s.e.m.
Coimmunoprecipitation using spinal cord tissue membrane extracts: The dorsal quadrants of rat spinal cords at the L5 and L6 levels or the frozen lumbar spinal cord tissues from four human donors (2 males and 2 females, age ranged 18-42 years, post-mortem interval of 17-29 h; supplied by University of Maryland Brain and Tissue Bank) were dissected and homogenized in ice-cold hypotonic buffer (20 mM Tris [pH 7.4], 1 mM CaCl2, 1 mM MgCl2, and protease inhibitors) for membrane preparation. The nuclei and unbroken cells were removed by centrifugation at 300×g for 5 min. The supernatant was centrifuged for 20 min at 21,000×g. […]

T2 sequence (P54290 25-944 limits assumed): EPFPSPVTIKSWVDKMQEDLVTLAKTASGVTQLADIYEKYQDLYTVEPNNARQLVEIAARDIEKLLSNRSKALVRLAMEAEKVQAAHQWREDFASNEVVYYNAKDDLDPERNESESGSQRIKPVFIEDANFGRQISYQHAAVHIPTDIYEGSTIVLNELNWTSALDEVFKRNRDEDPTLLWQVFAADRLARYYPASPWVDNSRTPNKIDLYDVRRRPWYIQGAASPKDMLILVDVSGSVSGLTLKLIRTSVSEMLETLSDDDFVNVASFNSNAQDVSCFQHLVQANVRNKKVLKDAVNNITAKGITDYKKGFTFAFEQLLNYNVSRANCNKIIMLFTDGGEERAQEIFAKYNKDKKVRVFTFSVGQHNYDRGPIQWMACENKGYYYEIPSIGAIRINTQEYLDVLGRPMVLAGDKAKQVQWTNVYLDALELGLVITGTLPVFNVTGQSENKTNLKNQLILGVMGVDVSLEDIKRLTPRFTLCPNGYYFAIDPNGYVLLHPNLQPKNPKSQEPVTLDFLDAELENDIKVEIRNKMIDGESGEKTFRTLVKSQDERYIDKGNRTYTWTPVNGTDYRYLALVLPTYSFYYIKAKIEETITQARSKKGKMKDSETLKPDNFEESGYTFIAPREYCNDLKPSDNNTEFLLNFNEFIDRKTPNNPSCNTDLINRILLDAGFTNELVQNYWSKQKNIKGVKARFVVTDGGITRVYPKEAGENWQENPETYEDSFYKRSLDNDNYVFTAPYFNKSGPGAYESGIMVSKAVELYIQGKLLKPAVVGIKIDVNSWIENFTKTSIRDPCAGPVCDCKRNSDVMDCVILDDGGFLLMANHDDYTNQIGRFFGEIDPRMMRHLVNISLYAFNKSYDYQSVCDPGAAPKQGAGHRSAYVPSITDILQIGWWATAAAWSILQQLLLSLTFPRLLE
T2 sequence (Q02294 whole entry): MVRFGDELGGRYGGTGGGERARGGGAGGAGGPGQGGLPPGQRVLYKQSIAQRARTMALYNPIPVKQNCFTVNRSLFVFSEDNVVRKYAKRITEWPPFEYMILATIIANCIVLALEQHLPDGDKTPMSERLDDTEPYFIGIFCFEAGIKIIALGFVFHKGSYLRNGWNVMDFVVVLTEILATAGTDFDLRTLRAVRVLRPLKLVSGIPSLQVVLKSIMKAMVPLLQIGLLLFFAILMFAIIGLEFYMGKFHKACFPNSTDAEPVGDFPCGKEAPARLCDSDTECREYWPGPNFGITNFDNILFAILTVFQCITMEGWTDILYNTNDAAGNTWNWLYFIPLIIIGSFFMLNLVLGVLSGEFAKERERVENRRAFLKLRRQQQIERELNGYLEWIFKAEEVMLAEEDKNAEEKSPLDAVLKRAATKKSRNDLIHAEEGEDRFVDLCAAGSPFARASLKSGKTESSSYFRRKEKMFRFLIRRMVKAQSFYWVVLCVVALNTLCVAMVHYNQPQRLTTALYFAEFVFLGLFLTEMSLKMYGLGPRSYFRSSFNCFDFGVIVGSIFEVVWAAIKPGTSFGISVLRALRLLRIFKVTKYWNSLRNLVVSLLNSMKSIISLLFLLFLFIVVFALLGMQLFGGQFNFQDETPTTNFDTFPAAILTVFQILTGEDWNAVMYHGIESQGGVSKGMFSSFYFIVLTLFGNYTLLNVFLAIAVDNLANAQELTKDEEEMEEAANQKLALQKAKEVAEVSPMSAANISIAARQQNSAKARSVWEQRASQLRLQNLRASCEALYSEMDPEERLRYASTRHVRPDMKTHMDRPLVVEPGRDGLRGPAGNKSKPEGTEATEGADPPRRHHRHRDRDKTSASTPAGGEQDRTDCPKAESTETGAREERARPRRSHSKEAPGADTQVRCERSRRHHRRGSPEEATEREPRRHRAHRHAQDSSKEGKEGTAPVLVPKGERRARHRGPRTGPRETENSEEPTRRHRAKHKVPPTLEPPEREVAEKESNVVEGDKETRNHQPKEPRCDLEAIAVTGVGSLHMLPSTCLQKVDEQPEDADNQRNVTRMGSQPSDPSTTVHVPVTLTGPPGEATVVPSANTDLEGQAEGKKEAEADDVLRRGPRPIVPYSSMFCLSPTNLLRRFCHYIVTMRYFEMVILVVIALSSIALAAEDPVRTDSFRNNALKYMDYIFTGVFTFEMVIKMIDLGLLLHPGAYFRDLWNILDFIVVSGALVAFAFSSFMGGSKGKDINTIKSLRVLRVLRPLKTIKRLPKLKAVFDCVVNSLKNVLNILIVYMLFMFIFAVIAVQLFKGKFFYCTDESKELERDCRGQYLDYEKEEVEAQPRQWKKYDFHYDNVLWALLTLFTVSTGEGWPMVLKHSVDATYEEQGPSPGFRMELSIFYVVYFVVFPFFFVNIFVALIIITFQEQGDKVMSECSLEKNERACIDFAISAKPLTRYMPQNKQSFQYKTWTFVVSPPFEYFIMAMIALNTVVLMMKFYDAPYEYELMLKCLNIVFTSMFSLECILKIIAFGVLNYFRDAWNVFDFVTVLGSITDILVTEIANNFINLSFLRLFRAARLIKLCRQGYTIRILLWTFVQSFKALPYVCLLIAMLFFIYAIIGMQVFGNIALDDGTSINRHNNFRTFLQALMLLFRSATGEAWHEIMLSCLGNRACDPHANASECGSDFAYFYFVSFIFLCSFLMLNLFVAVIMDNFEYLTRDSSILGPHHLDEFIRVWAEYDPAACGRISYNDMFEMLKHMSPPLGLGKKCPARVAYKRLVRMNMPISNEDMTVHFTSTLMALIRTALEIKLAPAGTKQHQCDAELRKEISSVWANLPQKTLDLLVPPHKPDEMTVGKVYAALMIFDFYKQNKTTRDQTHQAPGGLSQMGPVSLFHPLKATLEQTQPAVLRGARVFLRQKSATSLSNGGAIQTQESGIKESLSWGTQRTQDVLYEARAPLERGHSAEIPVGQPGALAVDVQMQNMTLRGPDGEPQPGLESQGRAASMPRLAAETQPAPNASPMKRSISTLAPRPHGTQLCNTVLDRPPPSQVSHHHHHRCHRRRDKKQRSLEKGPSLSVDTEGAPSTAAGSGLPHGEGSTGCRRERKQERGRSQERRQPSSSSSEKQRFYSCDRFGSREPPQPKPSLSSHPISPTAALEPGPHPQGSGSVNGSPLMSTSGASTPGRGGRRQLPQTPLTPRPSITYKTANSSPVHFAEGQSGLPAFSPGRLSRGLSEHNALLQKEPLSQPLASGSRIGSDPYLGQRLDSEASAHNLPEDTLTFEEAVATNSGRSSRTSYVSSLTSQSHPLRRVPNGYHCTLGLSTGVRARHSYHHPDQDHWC

YGRKKRRQRRRVSGLNPSLWSIFGLQFILLWLVSGSRHYLW (a2d1 peptide) [α2δ-1Tat peptide, 30-amino-acid peptide mimicking the C-terminal domain of α2δ-1 fused to the cell-penetrating peptide Tat]
increased pre- and postsynaptic NMDAR activity of spinal dorsal horn neurons [1]: normalized
pain hypersensitivity induced by Cacna2d1 overexpression (tactile and pressure withdrawal thresholds) [2]: attenuates
pain hypersensitivity induced by Cacna2d1 overexpression (tactile and pressure withdrawal thresholds) ([2]; listed as a2d-1Tat peptide): similarly reversed
withdrawal thresholds in rats treated with the control vector ([2]; control vector rats, intrathecal injection): had no effect
interaction between α2δ-1 and Cav2.2 proteins in the spinal cord tissue [3]: lack of an effect
interaction between α2δ-1 and Cav2.2 proteins in the spinal cord tissue ([3]; listed as α2δ-1 Tat peptide): had no effect
